Biological target: T1, human EGFR extracellular domain (Prospec) (human, UniProt P00533 25-645)
T1 construct: extracellular domain; Bought protein; also called epidermal growth factor receptor
Experiment: SPR (Biacore T100); antibody captured on anti-human IgG CM5 chip, EGFR extracellular domain 6.25-100 nM as analyte; 1:1 Langmuir model
Description: 1× HBS-EP (GE healthcare) was used as a running buffer and a dilution buffer. About 5,000 RU (response unit) of an Anti-human IgG antibody (Jackson Immuno Research) were immobilized on a surface of a CM5 chip (GE healthcare) by standard amine-coupling. […] A contact time (association phase) was 180 seconds, and a separation time (washing with running buffer) was 600 seconds. After each binding cycle was terminated, Glycine-HCl pH 2.0 (GE healthcare) as a regeneration solution was flown onto the chip at a flow rate of 50 μL/min for 1 minute to remove the combined antigen and antibody from the chip. A sensorgram was obtained therefrom such that a fitting process was performed in BIA evaluation software by using a 1:1 Langmuir binding model for the EGFR case and by using a bivalent analyte model for the VEGF case.

B1: (E2)2, monospecific antibody recognizing the EGFR (antibody, human IgG1, V domains shown)
VL: DIQMTQSPTSLSASVGDRVTITCRASQWIGNLLDWYQQKPGEAPKLLIYYASFLQSGVPSRFSGGGFGTDFTLTISSLQPEDFATYYCQQANPAPLTFGQGTKVEIKR
notes: Homodimer of E2-hinge-Fc chains, inferred from the label (E2)2
Binder B1 has a Kd of 4.91 nM.

— patent US20130196377A1 (SAMSUNG ELECTRONICS, published 2013)
